According to PMC11368712:

Tests used:
[1] = molecular target: AgaBb1180 (Bifidobacterium bifidum JCM 1254); experiment: SEC
[2] = molecular target: AgaBb1191 (α-galactosidase from Bifidobacterium bifidum JCM 1254, residues 23-1191, without the N-terminal T7-tag) (Bifidobacterium bifidum JCM 1254); experiment: SEC

Substance	stoichiometry N [1]	stoichiometry N [2]
AgaBb1180 (domain or fragment)	2	
AgaBb1191 (α-galactosidase from Bifidobacterium bifidum JCM 1254, residues 23-1191, without the N-terminal T7-tag) (domain or fragment)		2
